Measured values published in the RNAGym collection of RNA variant scans (doi:10.1073/pnas.2313332121).

B1: TPR t1 (parent)
chain: GACCAAUCUGCCCUCAGAGCUCGAGAACAUCUUCGGAUGCAGAGGAGGCAGGCUUCGGUGGCGCGAUAGCGCCAACGUCCUCAACCUCCAAUGCAUCCCACCACAUGAUGAUGCCUGAAGAGCCUUGGUUUUUUG

Variants of: B1
Test: polymerase ribozyme fitness, log enrichment relative to wild type (log ratio); higher = more active; in vitro selection for triplet polymerase activity
Method in brief: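 For each subunit of a heterodimeric triplet polymerase ribozyme, a mutant library was built by PCR and transcribed, then taken through a single in vitro selection round in triplicate. Selection involved annealing to a biotinylated primer, the partner subunit and triplets, incubation frozen at −7 °C, gel excision of extended constructs, capture on streptavidin beads and RT-PCR. Genotypes were retained after Illumina sequencing of inputs and outputs only with ≥10 input reads and ≥1 read in each output. Fitness is defined as the logarithm of a genotype's enrichment relative to wild-type enrichment, using inverse-variance-weighted averages across replicates, with the logarithm taken to base 2.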

In order of falling “polymerase ribozyme fitness (log ratio)” value:
1. GACCAAUCUGCCCUCAGAGCUCGAGAACAUCUUCGGAUGCAGAGGAGGCAGGCUUCGGUGGCGCGAUAGCGCCAACGUCCUCAACCUCCAAUGCAUCCCACCACGAGAUGAUGCCUGAAUAGCCUUGGUUUUCUG  0.414
2. GACCAAUCUGCCCUCAGAGCUCGAGAACAUCUUCGGAUGCAGAGGAGGCAGGCUUCGGUGGCGCGAUAGCGCCAACGUCCUCAACCUCCAAUGCAUCCCACCAUAUGAUGAUGCCUGUAGAGCCUUGGUUAUUUG  0.243
3. GACCAAUCUGCCCUCAGAGCUCGAGAACAUCUUCGGAUGCAGAGGAGGCAGGCUUCGGUGGCGCGAUAGCGCCAACGUCCUCAACCUCCAAUGCAUCCCACCAUAUGAUGAUGCCUGAAGAGCCUUGGUUUUUUG  0.111
4. GACCAAUCUGCCCUCAGAGCUCGAGAACAUCUUCGGAUGCAGAGGAGGCAGGCUUCGGUGGCGCGAUAGCGCCAACGUCCUCAACCUCCAAUGCAUCCCACUACAUGAUGAUGCCUGAAGUGCCUUGGUUUUUUG  0.0802
5. GACCAAUCUGCCCUCAGAGCUCGAGAACAUCUUCGGAUGCAGAGGAGGCAGGCUUCGGUGGCGCGAUAGCGCCAACGUCCUCAACCUCCAAUGCAUCCCACCAUAUGAUGAUGCCUGAAGAGCCUUGGUGUUUUG  -0.0774
6. GACCAAUCUGCCCUCAGAGCUCGAGAACAUCUUCGGAUGCAGAGGAGGCAGGCUUCGGUGGCGCGAUAGCGCCAACGUCCUCAACCUCCAAUGCAUCCCACCACGUGAUGACGCCUGAAGAGCCUUGGUUUUUUG  -0.683
7. GACCAAUCUGCCCUCAGAGCUCGAGAACAUCUUCGGAUGCAGAGGAGGCAGGCUUCGGUGGCGCGAUAGCGCCAACGUCCUCAACCUCCAAUGCAUCCCACCAUAUGAUGAUGCCUAAAGAGCCUUGGUUUUUUG  -0.723
8. GACCAAUCUGCCCUCAGAGCUCGAGAACAUCUUCGGAUGCAGAGGAGGCAGGCUUCGGUGGCGCGAUAGCGCCAACGUCCUCAACCUCCAAUGCAUCCCACUACAUGAUGAUGCCUGAACAGCCUUGGUUUUUUG  -1.05
9. GACCAAUCUGCCCUCAGAGCUCGAGAACAUCUUCGGAUGCAGAGGAGGCAGGCUUCGGUGGCGCGAUAGCGCCAACGUCCUCAACCUCCAAUGCAUCCCACCAAAUGAUGAUGCCUGAAGAGCCUUGGUUUUUGG  -1.17
10. GACCAAUCUGCCCUCAGAGCUCGAGAACAUCUUCGGAUGCAGAGGAGGCAGGCUUCGGUGGCGCGAUAGCGCCAACGUCCUCAACCUCCAAUGCAUCCCACCAAAUGAUGAUGCCUGAAGAGUCUUGUUAUUUUG  -1.35
11. GACCAAUCUGCCCUCAGAGCUCGAGAACAUCUUCGGAUGCAGAGGAGGCAGGCUUCGGUGGCGCGAUAGCGCCAACGUCCUCAACCUCCAAUGCAUCCCACCAAAUGAUGAUGCCUGAAGAGCCUUGGUUUUUUG  -1.45
12. GACCAAUCUGCCCUCAGAGCUCGAGAACAUCUUCGGAUGCAGAGGAGGCAGGCUUCGGUGGCGCGAUAGCGCCAACGUCCUCAACCUCCAAUGCAUCCCACCAAAUGAUGAUGCCUGAAUAGCCUUCGUUUUUUG  -1.76
13. GACCAAUCUGCCCUCAGAGCUCGAGAACAUCUUCGGAUGCAGAGGAGGCAGGCUUCGGUGGCGCGAUAGCGCCAACGUCCUCAACCUCCAAUGCAUCCCACUACAUGAUGAUGCCUGAAGAGCCUUGGUUUAUUG  -1.83
14. GACCAAUCUGCCCUCAGAGCUCGAGAACAUCUUCGGAUGCAGAGGAGGCAGGCUUCGGUGGCGCGAUAGCGCCAACGUCCUCAACCUCCAAUGCAUCCCACCACGUGAUGAUGCCUGAACAGCCUUGGUUUUUUG  -1.97
15. GACCAAUCUGCCCUCAGAGCUCGAGAACAUCUUCGGAUGCAGAGGAGGCAGGCUUCGGUGGCGCGAUAGCGCCAACGUCCUCAACCUCCAAUGCAUCCCACCAUAUGAUGAUGCCUUAAGAGCCUUGGUUUAUUG  -1.97
16. GACCAAUCUGCCCUCAGAGCUCGAGAACAUCUUCGGAUGCAGAGGAGGCAGGCUUCGGUGGCGCGAUAGCGCCAACGUCCUCAACCUCCAAUGCAUCCCACCAUAUGAUGAGGCCCGAAGAGCCUUGGUUUUUUG  -1.98
17. GACCAAUCUGCCCUCAGAGCUCGAGAACAUCUUCGGAUGCAGAGGAGGCAGGCUUCGGUGGCGCGAUAGCGCCAACGUCCUCAACCUCCAAUGCAUCCCACCAAAUGAUGAUGCCUGAACAGCCUUAGAUUUUUG  -2.25
18. GACCAAUCUGCCCUCAGAGCUCGAGAACAUCUUCGGAUGCAGAGGAGGCAGGCUUCGGUGGCGCGAUAGCGCCAACGUCCUCAACCUCCAAUGCAUCCCACCACCUGAUGAUGUCUGAACAGCCUUGGUUUUUUG  -2.29
19. GACCAAUCUGCCCUCAGAGCUCGAGAACAUCUUCGGAUGCAGAGGAGGCAGGCUUCGGUGGCGCGAUAGCGCCAACGUCCUCAACCUCCAAUGCAUCCCACCAAAUGAUGAUGCCUAAAGAGCCUUGGUUUUUUG  -2.41
20. GACCAAUCUGCCCUCAGAGCUCGAGAACAUCUUCGGAUGCAGAGGAGGCAGGCUUCGGUGGCGCGAUAGCGCCAACGUCCUCAACCUCCAAUGCAUCCCACCACGUGAUGAUGCCUGAAUAGCCUUGGUUUUUUG  -2.44
21. GACCAAUCUGCCCUCAGAGCUCGAGAACAUCUUCGGAUGCAGAGGAGGCAGGCUUCGGUGGCGCGAUAGCGCCAACGUCCUCAACCUCCAAUGCAUCCCACCUCAUGAUGAUGCCUGAAGGGUCUUGGUUUUUUG  -2.56
22. GACCAAUCUGCCCUCAGAGCUCGAGAACAUCUUCGGAUGCAGAGGAGGCAGGCUUCGGUGGCGCGAUAGCGCCAACGUCCUCAACCUCCAAUGCAUCCCACCUCAUGAUGAUGCCUGAAGAGCGUUGGUUCUUUG  -2.6
23. GACCAAUCUGCCCUCAGAGCUCGAGAACAUCUUCGGAUGCAGAGGAGGCAGGCUUCGGUGGCGCGAUAGCGCCAACGUCCUCAACCUCCAAUGCAUCCCACUACAUGAUGAUACCUGAAGAGCCUUGGUUUUUUG  -2.86
24. GACCAAUCUGCCCUCAGAGCUCGAGAACAUCUUCGGAUGCAGAGGAGGCAGGCUUCGGUGGCGCGAUAGCGCCAACGUCCUCAACCUCCAAUGCAUCCCACUACACGAUGAUACCUGAAGCGCCUUGGUUGUUUG  -3.34
25. GACCAAUCUGCCCUCAGAGCUCGAGAACAUCUUCGGAUGCAGAGGAGGCAGGCUUCGGUGGCGCGAUAGCGCCAACGUCCUCAACCUCCAAUGCAUCCCACCAAAUGAUGAUGCCUGAAGAGCUUUGGUAUUUUG  -3.43
26. GACCAAUCUGCCCUCAGAGCUCGAGAACAUCUUCGGAUGCAGAGGAGGCAGGCUUCGGUGGCGCGAUAGCGCCAACGUCCUCAACCUCCAAUGCAUCCCACCUCAUGAUGAUGCCUGAAGAGUCUUGGUUUUUUG  -3.47
27. GACCAAUCUGCCCUCAGAGCUCGAGAACAUCUUCGGAUGCAGAGGAGGCAGGCUUCGGUGGCGCGAUAGCGCCAACGUCCUCAACCUCCAAUGCAUCCCACCAAAUGAUGAUGCCUGAAGAGCCUUGAUUUUUUG  -3.67
28. GACCAAUCUGCCCUCAGAGCUCGAGAACAUCUUCGGAUGCAGAGGAGGCAGGCUUCGGUGGCGCGAUAGCGCCAACGUCCUCAACCUCCAAUGCAUCCCACUACAUGAUGAUGCCUGAAGAGCCAUGGCUUUUUG  -3.71
29. GACCAAUCUGCCCUCAGAGCUCGAGAACAUCUUCGGAUGCAGAGGAGGCAGGCUUCGGUGGCGCGAUAGCGCCAACGUCCUCAACCUCCAAUGCAUCCCACCAAAUGAUUAUGCCUGAAGAGCCUUGGUUUUUUG  -3.77
30. GACCAAUCUGCCCUCAGAGCUCGAGAACAUCUUCGGAUGCAGAGGAGGCAGGCUUCGGUGGCGCGAUAGCGCCAACGUCCUCAACCUCCAAUGCAUCCCACCAAAUGAUGAUGGCUGAAGAGCCUUGGUUUUUUG  -3.81
31. GACCAAUCUGCCCUCAGAGCUCGAGAACAUCUUCGGAUGCAGAGGAGGCAGGCUUCGGUGGCGCGAUAGCGCCAACGUCCUCAACCUCCAAUGCAUCCCACCUCAUGAUGAUGCCUGAAGAGCCUUGGUAUUUUG  -4.14
32. GACCAAUCUGCCCUCAGAGCUCGAGAACAUCUUCGGAUGCAGAGGAGGCAGGCUUCGGUGGCGCGAUAGCGCCAACGUCCUCAACCUCCAAUGCAUCCCACUACAUGAUGAUGCCUGAAGAGCCUUGCAUUUUUG  -4.82
33. GACCAAUCUGCCCUCAGAGCUCGAGAACAUCUUCGGAUGCAGAGGAGGCAGGCUUCGGUGGCGCGAUAGCGCCAACGUCCUCAACCUCCAAUGCAUCCCACCAAAUGAUGAUGCCUCAAGAGCCUUGGUUCUUUG  -4.93
34. GACCAAUCUGCCCUCAGAGCUCGAGAACAUCUUCGGAUGCAGAGGAGGCAGGCUUCGGUGGCGCGAUAGCGCCAACGUCCUCAACCUCCAAUGCAUCCCACCUCAUGAUGAUGCCUGAACAGCUUUGGUUUUUUG  -4.96
35. GACCAAUCUGCCCUCAGAGCUCGAGAACAUCUUCGGAUGCAGAGGAGGCAGGCUUCGGUGGCGCGAUAGCGCCAACGUCCUCAACCUCCAAUGCAUCCCACCACCUGAAGAUGCCUGAAGAGCCUUGGUUUUCUG  -5.16
36. GACCAAUCUGCCCUCAGAGCUCGAGAACAUCUUCGGAUGCAGAGGAGGCAGGCUUCGGUGGCGCGAUAGCGCCAACGUCCUCAACCUCCAAUGCAUCCCACCGCAUGAUGAUGCCUGAAGAGCCUUGGUAUUUUG  -5.53
37. GACCAAUCUGCCCUCAGAGCUCGAGAACAUCUUCGGAUGCAGAGGAGGCAGGCUUCGGUGGCGCGAUAGCGCCAACGUCCUCAACCUCCAAUGCAUCCCACCACUUGAUGUUGCCUGAAGAGCCUUGGUUUUUUG  -5.69
38. GACCAAUCUGCCCUCAGAGCUCGAGAACAUCUUCGGAUGCAGAGGAGGCAGGCUUCGGUGGCGCGAUAGCGCCAACGUCCUCAACCUCCAAUGCAUCCCACCCCAUGAGGAUGCCUGAAGAGCCUUGGUCUUUUG  -5.77
39. GACCAAUCUGCCCUCAGAGCUCGAGAACAUCUUCGGAUGCAGAGGAGGCAGGCUUCGGUGGCGCGAUAGCGCCAACGUCCUCAACCUCCAAUGCAUCCCACCAGAUGAUGAUGGCUGAAAAGCCUCGGUUUUGUG  -5.9
40. GACCAAUCUGCCCUCAGAGCUCGAGAACAUCUUCGGAUGCAGAGGAGGCAGGCUUCGGUGGCGCGAUAGCGCCAACGUCCUCAACCUCCAAUGCAUCCCACUACAUGAAGAUGCCUGAAGAGCCUUGGUUUUUUG  -6.07
41. GACCAAUCUGCCCUCAGAGCUCGAGAACAUCUUCGGAUGCAGAGGAGGCAGGCUUCGGUGGCGCGAUAGCGCCAACGUCCUCAACCUCCAAUGCAUCCCACCAGAUGAUGAUGCCUGAAGAGCCUUGGUUUUUUG  -6.88
42. GACCAAUCUGCCCUCAGAGCUCGAGAACAUCUUCGGAUGCAGAGGAGGCAGGCUUCGGUGGCGCGAUAGCGCCAACGUCCUCAACCUCCAAUGCAUCCCACCAUAAGAAGAUGUCUGAAGAGUCUUGGUUUUUUG  -6.98
